{
  "source": "patent US20110318357A1",
  "molecular_target": "Shiga toxin type 2 (Stx2) (Escherichia coli) (UniProt P09385)",
  "assay": "cell-based or functional assay",
  "data": [
    {"substance": "monoclonal antibody 11E10", "values": [
      {"measurement": "percent neutralization of cytotoxicity for Vero cells", "value": 65, "unit": "%"}
    ]}
  ]
}
